Assay results published in paper PMC4824113.
“And” between values parts separate entries of the source, which are not always exact repeats. Equal values may be shown once.

Assays:
[1] = biological target: TaXPD 107C-312C C (crosslinked) (Thermoplasma acidophilum) (UniProt Q9HM14); experiment: fluorescence anisotropy; conditions: Anisotropy: 20 mM MES pH 6.4, 1 mM DTT, 1 mM MgCl2, 100 nM DNA, +/- 1 mM AMPPNP, temperature not stated; trapping: 20 mM Tris-HCl pH 8.3-8.5, 50 mM NaCl, 4 C …
[2] = biological target: TaXPD 100C-238C C (crosslinked) (Thermoplasma acidophilum) (UniProt Q9HM14); experiment: fluorescence anisotropy; conditions: Anisotropy: 20 mM MES pH 6.4, 1 mM DTT, 1 mM MgCl2, 100 nM DNA, +/- 1 mM AMPPNP, temperature not stated; trapping: 20 mM Tris-HCl pH 8.3-8.5, 50 mM NaCl, 4 C …

“TACGACAGAGAAGAGACGAGCATTTTTGCTCGGAAGGA [3'-fluorescein hairpin DNA with 5' overhang]” was tested, and the Kd [1] was 300 nM and 400 nM and the Kd [2] was 600 nM and 500 nM.
